# Data as given in article PMC5002983, “Hepatocyte Growth Factor Modulates MET Receptor Tyrosine Kinase and β-Catenin Functional Interactions to Enhance Synapse Formation” (eNeuro, 2016).
# B1: MET receptor tyrosine kinase (receptor, UniProt P16056 25-1379, looked up)
# chain: ECKEALVKSEMNVNMKYQLPNFTAETPIQNVVLHGHHIYLGATNYIYVLNDKDLQKVSEFKTGPVLEHPDCLPCRDCSSKANSSGGVWKDNINMALLVDTYYDDQLISCGSVNRGTCQRHVLPPDNSADIQSEVHCMFSPEEESGQCPDCVVSALGAKVLLSEKDRFINFFVGNTINSSYPPGYSLHSISVRRLKETQDGFKFLTDQSYIDVLPEFLDSYPIKYIHAFESNHFIYFLTVQKETLDAQTFHTRIIRFCSVDSGLHSYMEMPLECILTEKRRKRSTREEVFNILQAAYVSKPGANLAKQIGASPSDDILFGVFAQSKPDSAEPVNRSAVCAFPIKYVNDFFNKIVNKNNVRCLQHFYGPNHEHCFNRTLLRNSSGCEARSDEYRTEFTTALQRVDLFMGRLNQVLLTSISTFIKGDLTIANLGTSEGRFMQVVLSRTAHLTPHVNFLLDSHPVSPEVIVEHPSNQNGYTLVVTGKKITKIPLNGLGCGHFQSCSQCLSAPYFIQCGWCHNQCVRFDECPSGTWTQEICLPAVYKVFPTSAPLEGGTVLTICGWDFGFRKNNKFDLRKTKVLLGNESCTLTLSESTTNTLKCTVGPAMSEHFNVSVIISNSRETTQYSAFSYVDPVITSISPRYGPQAGGTLLTLTGKYLNSGNSRHISIGGKTCTLKSVSDSILECYTPAQTTSDEFPVKLKIDLANRETSSFSYREDPVVYEIHPTKSFISGGSTITGIGKTLNSVSLPKLVIDVHEVGVNYTVACQHRSNSEIICCTTPSLKQLGLQLPLKTKAFFLLDGILSKHFDLTYVHNPVFEPFEKPVMISMGNENVVEIKGNNIDPEAVKGEVLKVGNQSCESLHWHSGAVLCTVPSDLLKLNSELNIEWKQAVSSTVLGKVIVQPDQNFAGLIIGAVSISVVVLLLSGLFLWMRKRKHKDLGSELVRYDARVHTPHLDRLVSARSVSPTTEMVSNESVDYRATFPEDQFPNSSQNGACRQVQYPLTDLSPILTSGDSDISSPLLQNTVHIDLSALNPELVQAVQHVVIGPSSLIVHFNEVIGRGHFGCVYHGTLLDNDGKKIHCAVKSLNRITDIEEVSQFLTEGIIMKDFSHPNVLSLLGICLRSEGSPLVVLPYMKHGDLRNFIRNETHNPTVKDLIGFGLQVAKGMKYLASKKFVHRDLAARNCMLDEKFTVKVADFGLARDMYDKEYYSVHNKTGAKLPVKWMALESLQTQKFTTKSDVWSFGVLLWELMTRGAPPYPDVNTFDITIYLLQGRRLLQPEYCPDALYEVMLKCWHPKAEMRPSFSELVSRISSIFSTFIGEHYVHVNATYVNVKCVAPYPSLLPSQDNIDGEGNT
# notes: MET receptor tyrosine kinase (hepatocyte growth factor receptor), mouse, endogenous; Endogenous protein, precipitated with goat anti-MET (R&D Systems); With HGF the receptor is phosphorylated (pMET blot); source: endogenous, lysate of crude synaptosomes from P14 mouse neocortex; endogenous, primary mouse neocortical neurons (14 DIV)
# B2: synapsin 1 (natural protein)
# chain: not shown
# notes: synapsin 1, mouse, endogenous; also called Syn 1; source: endogenous, lysate of crude synaptosomes from P14 mouse neocortex; endogenous, primary mouse neocortical neurons (14 DIV)
# B3: N-cadherin (natural protein, UniProt P15116 160-906, looked up)
# chain: DWVIPPINLPENSRGPFPQELVRIRSDRDKNLSLRYSVTGPGADQPPTGIFIINPISGQLSVTKPLDRELIARFHLRAHAVDINGNQVENPIDIVINVIDMNDNRPEFLHQVWNGSVPEGSKPGTYVMTVTAIDADDPNALNGMLRYRILSQAPSTPSPNMFTINNETGDIITVAAGLDREKVQQYTLIIQATDMEGNPTYGLSNTATAVITVTDVNDNPPEFTAMTFYGEVPENRVDVIVANLTVTDKDQPHTPAWNAAYRISGGDPTGRFAILTDPNSNDGLVTVVKPIDFETNRMFVLTVAAENQVPLAKGIQHPPQSTATVSVTVIDVNENPYFAPNPKIIRQEEGLHAGTMLTTLTAQDPDRYMQQNIRYTKLSDPANWLKIDPVNGQITTIAVLDRESPNVKNNIYNATFLASDNGIPPMSGTGTLQIYLLDINDNAPQVLPQEAETCETPEPNSINITALDYDIDPNAGPFAFDLPLSPVTIKRNWTINRLNGDFAQLNLKIKFLEAGIYEVPIIITDSGNPPKSNISILRVKVCQCDSNGDCTDVDRIVGAGLGTGAIIAILLCIIILLILVLMFVVWMKRRDKERQAKQLLIDPEDDVRDNILKYDEEGGGEEDQDYDLSQLQQPDTVEPDAIKPVGIRRLDERPIHAEPQYPVRSAAPHPGDIGDFINEGLKAADNDPTAPPYDSLLVFDYEGSGSTAGSLSSLNSSSSGGDQDYDYLNDWGPRFKKLADMYGGGDD
# notes: N-cadherin (cadherin-2), mouse, endogenous; Endogenous protein, precipitated with rabbit anti-N-cadherin (Santa Cruz Biotechnology); source: endogenous, lysate of crude synaptosomes from P14 mouse neocortex
# B4: β-catenin (natural protein, UniProt Q02248 1-781, looked up)
# chain: MATQADLMELDMAMEPDRKAAVSHWQQQSYLDSGIHSGATTTAPSLSGKGNPEEEDVDTSQVLYEWEQGFSQSFTQEQVADIDGQYAMTRAQRVRAAMFPETLDEGMQIPSTQFDAAHPTNVQRLAEPSQMLKHAVVNLINYQDDAELATRAIPELTKLLNDEDQVVVNKAAVMVHQLSKKEASRHAIMRSPQMVSAIVRTMQNTNDVETARCTAGTLHNLSHHREGLLAIFKSGGIPALVKMLGSPVDSVLFYAITTLHNLLLHQEGAKMAVRLAGGLQKMVALLNKTNVKFLAITTDCLQILAYGNQESKLIILASGGPQALVNIMRTYTYEKLLWTTSRVLKVLSVCSSNKPAIVEAGGMQALGLHLTDPSQRLVQNCLWTLRNLSDAATKQEGMEGLLGTLVQLLGSDDINVVTCAAGILSNLTCNNYKNKMMVCQVGGIEALVRTVLRAGDREDITEPAICALRHLTSRHQEAEMAQNAVRLHYGLPVVVKLLHPPSHWPLIKATVGLIRNLALCPANHAPLREQGAIPRLVQLLVRAHQDTQRRTSMGGTQQQFVEGVRMEEIVEGCTGALHILARDVHNRIVIRGLNTIPLFVQLLYSPIENIQRVAAGVLCELAQDKEAAEAIEAEGATAPLTELLHSRNEGVATYAAAVLFRMSEDKPQDYKKRLSVELTSSLFRTEPMAWNETADLGLDIGAQGEALGYRQDDPSYRSFHSGGYGQDALGMDPMMEHEMGGHHPGADYPVDGLPDLGHAQDLMDGLPPGDSNQLAWFDTDL
# notes: β-catenin, mouse, endogenous; Endogenous protein, precipitated with mouse anti-β-catenin (BD Biosciences); With HGF a part of it is phosphorylated at Y142; source: endogenous, lysate of crude synaptosomes from P14 mouse neocortex; endogenous, primary mouse neocortical neurons (14 DIV)
# Tests used:
# Settings in all cases: partners not purified
# β-catenin = molecular target: B4; assay: co-IP; crude synaptosomes from P14 mouse neocortex, PBS or 25 ng/ml HGF for 5 min at 37 °C, lysed in HEPES pH 7.4 buffer with 1% Triton X-100; IP with goat anti-MET, mouse anti-β-catenin or rabbit anti-N-cadherin (control IgG in parallel), protein G plus agarose, washes in lysis buffer plus 150 mM NaCl; Western blot; band ratios as fold change HGF/PBS, 3 experiments
# [1] = molecular target: B1; assay: proximity ligation; Duolink in situ PLA on fixed primary mouse neocortical neurons at 14 DIV, endogenous proteins, two antibodies (signal means 40 nm or less); PBS or 25 ng/ml HGF for 5, 10 or 30 min; PLA clusters per area of dendrite
# [2] = molecular target: B1; assay: co-IP; crude synaptosomes from P14 mouse neocortex, PBS or 25 ng/ml HGF for 5 min at 37 °C, lysed in HEPES pH 7.4 buffer with 1% Triton X-100; IP with goat anti-MET, mouse anti-β-catenin or rabbit anti-N-cadherin (control IgG in parallel), protein G plus agarose, washes in lysis buffer plus 150 mM NaCl; Western blot; band ratios as fold change HGF/PBS, 3 experiments
# N-cadherin = molecular target: B3; assay: as above
mean fold change (HGF/PBS) of co-immunoprecipitated protein (β-catenin) [fold],fold increase in density of PLA signal (HGF against PBS) [1] [fold],mean fold change (HGF/PBS) of co-immunoprecipitated protein [2] [fold],mean fold change (HGF/PBS) of co-immunoprecipitated protein (N-cadherin) [fold],Binder
0.376,,,,B1
,~1.5,1.8,,B2
1.31,,,,B3
,,0.399,1.39,B4
